From US20210206841A1 (RESEARCH INSTITUTE AT NATIONWIDE CHILDREN S HOSPITAL, published 2021)
Positions count from the first letter of the chain named.

B1: humanized anti-tip monoclonal antibody, heavy chain SEQ ID NO: 3 and light chain SEQ ID NO: 8 (antibody, V domains shown)
VH: EVKLVQSGAEVKKPGASVKVSCKASGFTFRTYAMSWVRQAPGQRLEWVATIGSDRRHTYYPDKFQGRVTITRDNAKNTLYMELSSLRSEDTAVYYCVGPYDGYYGEFDYWGQGTLVTVSS
VL: DVVMTQSPLSLPVTLGQPASISCRSSQSLLDSDGKTFLNWLQQRPGQSPRRLIYLVSKRDSGVPDRFSGSGSGTDFTLKISRVEAEDVGVYYCWQGTHFPYTFGQGTKLEIKR
notes: also called H10212 (1F8.F1 Humanized HC3) + L10211 (1F8.F1 Humanized LC2)
B2: humanized anti-tail monoclonal antibody, heavy chain SEQ ID NO: 5 and light chain SEQ ID NO: 12 (antibody, V domains shown)
VH: EVQLVESGGGLVKPGGSLRLSCAASGFTFSRYGMSWVRQAPGKGLEWVSTISSGGSYTYYTDSVKGRFTISRDNAKNSLYLQMNSLRAEDTAVYYCERHGGDGYWYFDVWGQGTMVTVSS
VL: DIVMTQSPATLSLSPGERATLSCRASQDISNYLNWYQQKPGQAVRLLIYYTSRLHSGIPARFSGSGSGTDYTLTISSLEPEDFAVYFCQQGNPLRTFGGGTKVEIKR
notes: also called H10214 (11E7.C7 Humanized HC2) + L10215 (11E7.C7 Humanized LC3)
B3: humanized anti-tail monoclonal antibody, heavy chain SEQ ID NO: 6 and light chain SEQ ID NO: 12 (antibody, V domains shown)
VH: B2 VH with K13Q, G16R, A23T, S49A, S78I, R87K, A88T
VL: B2 VL
notes: also called H10215 (11E7.C7 Humanized HC3) + L10215 (11E7.C7 Humanized LC3)

What was measured:
[1] = molecular target: T1, tip-chimeric peptide IhfA5-mIhfB4NTHI (nontypeable Haemophilus influenzae …); assay: direct ELISA #2, peptide coated (curves reaching equilibrium)
T1 construct: also called IHF(NTHI) tip chimeric peptide; IHFNTHI tip chimeric peptide
T1 peptide: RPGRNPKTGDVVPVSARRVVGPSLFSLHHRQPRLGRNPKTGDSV

[2] = molecular target: T2, native IHFNTHI (integration host factor of nontypeable Haemophilus influenzae) (nontypeable Haemophilus influenzae …, UniProt P43723 1-96; P43724 1-94); assay: SPR Biacore 3000, IHFNTHI immobilized, HuMab as analyte
T2 construct: also called NTHI IHF
T2 sequence 1: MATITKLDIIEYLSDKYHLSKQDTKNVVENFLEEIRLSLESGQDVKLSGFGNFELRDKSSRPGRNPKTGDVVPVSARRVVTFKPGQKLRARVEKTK
T2 sequence 2: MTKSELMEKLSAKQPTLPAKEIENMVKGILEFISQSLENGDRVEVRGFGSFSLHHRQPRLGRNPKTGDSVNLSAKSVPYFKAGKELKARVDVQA

[3] = molecular target: T1, tip-chimeric peptide IhfA5-mIhfB4NTHI; assay: direct binding ELISA: tip chimeric peptide coated at 2 ug/mL, antibody titrated 1:3 in 8 points, anti-human IgG Fc-HRP, absorbance at 450 nm [panel B]
[4] = molecular target: T1, tip-chimeric peptide IhfA5-mIhfB4NTHI; assay: SPR Biacore 3000, peptide immobilized, HuMab as analyte
[5] = molecular target: T1, tip-chimeric peptide IhfA5-mIhfB4NTHI; assay: direct ELISA #1, peptide coated (curves not reaching equilibrium)
[6] = molecular target: T2, native IHFNTHI (integration host factor …); assay: SPR Biacore 3000, HuMab immobilized, IHFNTHI as analyte
[7] = molecular target: T1, tip-chimeric peptide IhfA5-mIhfB4NTHI; assay: SPR Biacore 3000, HuMab immobilized, peptide as analyte
[8] = molecular target: T2, native IHFNTHI (integration host factor …); assay: SPR Biacore 3000, HuMab immobilized, IHFNTHI as analyte; remark: listed apart in the source
[9] = molecular target: T3, tail-chimeric peptide IhfA3-IhfB2NTHI (nontypeable Haemophilus influenzae …); assay: SPR Biacore 3000, peptide immobilized, HuMab as analyte
T3 construct: also called IHF(NTHI) tail chimeric peptide; IHFNTHI tail chimeric peptide
T3 peptide: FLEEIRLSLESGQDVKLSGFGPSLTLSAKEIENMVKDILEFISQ

[10] = molecular target: T3, tail-chimeric peptide IhfA3-IhfB2NTHI; assay: SPR Biacore 3000, HuMab immobilized, peptide as analyte
[11] = molecular target: T3, tail-chimeric peptide IhfA3-IhfB2NTHI; assay: direct ELISA #1, peptide coated (curves not reaching equilibrium)
[12] = molecular target: T3, tail-chimeric peptide IhfA3-IhfB2NTHI; assay: direct ELISA #2, peptide coated (curves reaching equilibrium)

Binder | Kd [8] | koff [8] | kon [8] | Kd [9] | koff [9] | kon [9] | Kd [10] | koff [10] | kon [10] | EC50 [11] | EC50 [12] | further results
B1 | – | – | – | – | – | – | – | – | – | – | – | EC50 [1]: 0.0934 mg/L; Kd [2]: 0.115 µM; koff [2]: 0.00021 s⁻¹; kon [2]: 1800 M⁻¹ s⁻¹; EC50 [3]: 0.086 mg/L; Kd [4]: 0.007 µM; koff [4]: 0.00035 s⁻¹; kon [4]: 51000 M⁻¹ s⁻¹; EC50 [5]: 0.066 mg/L; Kd [6]: 0.245 µM; koff [6]: 0.0018 s⁻¹; kon [6]: 7500 M⁻¹ s⁻¹; Kd [7]: 0.02 µM; koff [7]: 0.0019 s⁻¹; kon [7]: 95000 M⁻¹ s⁻¹
B2 | 0.039 µM | 0.0012 s⁻¹ | 33000 M⁻¹ s⁻¹ | 0.0091 µM | 0.00077 s⁻¹ | 85000 M⁻¹ s⁻¹ | 0.023 µM | 0.00044 s⁻¹ | 20000 M⁻¹ s⁻¹ | 0.015 mg/L | 0.0429 mg/L | –
B3 | ~0.143 µM | 0.0011 s⁻¹ | 7700 M⁻¹ s⁻¹ | 0.0024 µM | 0.0006 s⁻¹ | 250000 M⁻¹ s⁻¹ | 0.013 µM | 0.0021 s⁻¹ | 160000 M⁻¹ s⁻¹ | 0.008 mg/L | 0.0294 mg/L | –
